Laboratory results reported in US20210355220A1.

How the values were obtained:
Test in all cases: flow cytometry on transfected HEK293 cells, background control
[1] = target: hCD28 on HEK293 cells (human) (UniProt P10747)
[2] = target: human CTLA-4 expressed on cells (human) (UniProt P16410)
[3] = target: hPDL1 on HEK293 cells (human) (UniProt Q9NZQ7)
[4] = target: hICOS on HEK293 cells (human) (UniProt Q9Y6W8)
[5] = target: hPDL2 on HEK293 cells (human) (UniProt Q9BQ51)
[6] = target: hBTLA on HEK293 cells (human) (UniProt Q7Z6A9)
[7] = target: hPD1 on HEK293 cells (human) (UniProt Q15116)
hPD1 on HEK293 cells (human), sequence (Q15116 25-288): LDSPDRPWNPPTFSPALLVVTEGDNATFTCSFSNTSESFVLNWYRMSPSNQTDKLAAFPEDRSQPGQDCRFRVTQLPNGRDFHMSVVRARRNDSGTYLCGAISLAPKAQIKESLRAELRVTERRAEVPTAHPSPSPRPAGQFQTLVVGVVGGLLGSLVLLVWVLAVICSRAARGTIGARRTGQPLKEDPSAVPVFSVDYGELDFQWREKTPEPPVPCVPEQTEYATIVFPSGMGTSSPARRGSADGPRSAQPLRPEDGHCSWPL

hPDL2 on HEK293 cells (human), sequence (Q9BQ51 20-273): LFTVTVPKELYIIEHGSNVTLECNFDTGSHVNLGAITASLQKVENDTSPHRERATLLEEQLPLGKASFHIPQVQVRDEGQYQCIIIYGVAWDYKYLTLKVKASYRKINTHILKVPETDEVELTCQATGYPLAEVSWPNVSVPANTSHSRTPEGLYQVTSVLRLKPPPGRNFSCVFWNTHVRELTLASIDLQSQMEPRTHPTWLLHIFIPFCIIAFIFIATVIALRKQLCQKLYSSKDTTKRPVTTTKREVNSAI
human CTLA-4 expressed on cells (human), sequence (P16410 36-223): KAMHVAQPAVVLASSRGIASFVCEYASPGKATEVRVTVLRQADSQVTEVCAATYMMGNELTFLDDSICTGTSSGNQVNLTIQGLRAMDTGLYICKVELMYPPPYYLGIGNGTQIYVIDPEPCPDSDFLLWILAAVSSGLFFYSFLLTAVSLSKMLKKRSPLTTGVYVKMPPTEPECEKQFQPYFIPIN
hPDL1 on HEK293 cells (human), sequence (Q9NZQ7 19-290): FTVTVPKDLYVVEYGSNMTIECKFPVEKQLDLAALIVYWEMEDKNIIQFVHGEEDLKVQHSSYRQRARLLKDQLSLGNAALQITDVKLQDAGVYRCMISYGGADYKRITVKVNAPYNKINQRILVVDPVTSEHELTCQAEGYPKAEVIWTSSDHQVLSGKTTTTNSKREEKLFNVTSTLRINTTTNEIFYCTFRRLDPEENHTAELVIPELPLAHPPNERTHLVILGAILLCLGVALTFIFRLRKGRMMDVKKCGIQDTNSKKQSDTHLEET
hICOS on HEK293 cells (human), sequence (Q9Y6W8 21-199): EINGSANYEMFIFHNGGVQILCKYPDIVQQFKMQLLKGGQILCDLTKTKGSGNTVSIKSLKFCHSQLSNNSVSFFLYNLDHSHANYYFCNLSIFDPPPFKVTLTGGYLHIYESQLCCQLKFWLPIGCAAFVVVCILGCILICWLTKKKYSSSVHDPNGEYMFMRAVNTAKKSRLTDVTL

MFI [1]: 69 MFI
MFI [2]: 78 MFI
MFI [3]: 68 MFI
MFI [4]: 67 MFI
MFI [5]: 71 MFI
MFI [6]: 82 MFI
MFI [7]: 74 MFI
Substance: Secondary Antibody only (anti-human labeled secondary antibody)
